Experimental data reported in paper PMC8682759.

Target: beta-actin (monomeric, G-actin) (human, UniProt P60709 2-375)
Assay: fluorescence turn-on of BHQ1 probe; apparent; 10 mM Mg2+, BHQ1 probe; 10 mM Tris-HCl pH 7.6, 100 mM KCl, 10 mM MgCl2 (Kd assays), room temperature; RNA 3 uM with actin 3 uM preincubated 30 min at 25 C, then probe 1 uM (final) in 2

B1: AcP-TRap3 (structured_RNA)
RNA: GGAUCCAAGCUUGUUUGGCCCAAUAACGUCGAUUGAUUGUGGCCUAGAUAAAUUCGGAGCUUUCAAUGAAUUACACAACAAUGCUUUCGACGGAGAAUUC
- Kd: 1000 nM

B2: AcP-TRap4 (structured_RNA)
RNA: GGAUCCAAGCUUGUUUGGCCCAAUUCCUCGUCUUCAGACUGGCCUAGAUAAAUUCGGAGCUUGUUCACAACCUCUACUUCCUGCUUUCGACGGAGAAUUC
- Kd: 200 nM

B3: AcP-TRap2 (structured_RNA)
RNA: GGAUCCAAGCUUGUUUGGCAUUCCACGUCGAUAAAAGAUUGGCCUAGAUAAAUUCGGAGCUUAAAAUUCCCUCCUAUCUUUUGCUUUCGACGGAGAAUUC
- Kd: 600 nM

B4: AcP-TRap1 (structured_RNA)
RNA: GGAUCCAAGCUUGUUUGGCUCCAACCGUCCCCGCGUAUAUGGCCUAGAUAAAUUCGGAGCUUUUUGCCCAUCCUCAUAUAUUGCUUUCGACGGAGAAUUC
- Kd: 1500 nM
